Reference: patent publication US20180273587A1 (AILERON THERAPEUTICS, published 2018)
Positions of bridges follow the written chain, without caps; N, C: chain ends. Non-standard residues stand in square brackets, D forms with d. R8 = C=CCCCCCC[C@@](C)(N)C(=O)O; αMeD = C[C@](N)(CC(=O)O)C(=O)O; S5 = C=CCCC[C@](C)(N)C(=O)O

Experiments:
[1] = target: BCL-XL (UniProt Q07817 1-209); experiment: Ki table, method not stated
[2] = target: BCL-2 (UniProt P10415 1-217, limits assumed); experiment: Ki table, method not stated
Chain of BCL-2 (P10415 1-217 limits assumed): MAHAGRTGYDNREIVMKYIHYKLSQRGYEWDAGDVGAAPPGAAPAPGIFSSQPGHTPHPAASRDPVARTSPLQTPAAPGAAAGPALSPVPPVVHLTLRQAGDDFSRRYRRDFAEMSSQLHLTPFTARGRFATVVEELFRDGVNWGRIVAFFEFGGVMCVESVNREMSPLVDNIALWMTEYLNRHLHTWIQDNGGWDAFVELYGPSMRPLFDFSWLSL

Chain of BCL-XL (Q07817 1-209): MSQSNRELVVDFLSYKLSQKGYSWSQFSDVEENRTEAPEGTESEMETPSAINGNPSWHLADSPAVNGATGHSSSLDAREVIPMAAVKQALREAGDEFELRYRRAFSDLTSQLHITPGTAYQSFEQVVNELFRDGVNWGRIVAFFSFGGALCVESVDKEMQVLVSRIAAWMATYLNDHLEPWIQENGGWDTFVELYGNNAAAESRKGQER

| Ki [1] | Ki [2] | Binder |
| --- | --- | --- |
| 15.5 nM |  | Ac-IWIAQALR[R8]IG[αMeD]AFN[S5]YYA-NH2 (staple 9-16; SMILES CC[C@H](C)[C@H](NC(C)=O)C(=O)N[C@@H](Cc1c[nH]c2ccccc12)C(=O)N[C@H](C(=O)N[C@@H](C)C(=O)N[C@@H](CCC(N)=O)C(=O)N[C@@H](C)C(=O)N[C@@H](CC(C)C)C(=O)N[C@@H](CCCNC(=N)N)C(=O)N[C@]1(C)CCCCCCC=CCCC[C@@](C)(C(=O)N[C@@H](Cc2ccc(O)cc2)C(=O)N[C@@H](Cc2ccc(O)cc2)C(=O)N[C@@H](C)C(N)=O)NC(=O)[C@H](CC(N)=O)NC(=O)[C@H](Cc2ccccc2)NC(=O)[C@H](C)NC(=O)[C@](C)(CC(=O)O)NC(=O)CNC(=O)[C@H]([C@@H](C)CC)NC1=O)[C@@H](C)CC) [SEQ ID NO: 1709] |
| 9.2 nM | 23.5 nM | Ac-IWIAQELR[R8]IGDEFN[S5]YYARR-NH2 (staple 9-16; SMILES CC[C@H](C)[C@H](NC(C)=O)C(=O)N[C@@H](Cc1c[nH]c2ccccc12)C(=O)N[C@H](C(=O)N[C@@H](C)C(=O)N[C@@H](CCC(N)=O)C(=O)N[C@@H](CCC(=O)O)C(=O)N[C@@H](CC(C)C)C(=O)N[C@@H](CCCNC(=N)N)C(=O)N[C@]1(C)CCCCCCC=CCCC[C@@](C)(C(=O)N[C@@H](Cc2ccc(O)cc2)C(=O)N[C@@H](Cc2ccc(O)cc2)C(=O)N[C@@H](C)C(=O)N[C@@H](CCCNC(=N)N)C(=O)N[C@@H](CCCNC(=N)N)C(N)=O)NC(=O)[C@H](CC(N)=O)NC(=O)[C@H](Cc2ccccc2)NC(=O)[C@H](CCC(=O)O)NC(=O)[C@H](CC(=O)O)NC(=O)CNC(=O)[C@H]([C@@H](C)CC)NC1=O)[C@@H](C)CC) [SEQ ID NO: 1629] |
| 213 nM | 424 nM | Ac-WIAQALR[R8]IGDAFN[S5]YYA-NH2 (staple 8-15; SMILES CC[C@H](C)[C@H](NC(=O)[C@H](Cc1c[nH]c2ccccc12)NC(C)=O)C(=O)N[C@@H](C)C(=O)N[C@@H](CCC(N)=O)C(=O)N[C@@H](C)C(=O)N[C@@H](CC(C)C)C(=O)N[C@@H](CCCNC(=N)N)C(=O)N[C@]1(C)CCCCCCC=CCCC[C@@](C)(C(=O)N[C@@H](Cc2ccc(O)cc2)C(=O)N[C@@H](Cc2ccc(O)cc2)C(=O)N[C@@H](C)C(N)=O)NC(=O)[C@H](CC(N)=O)NC(=O)[C@H](Cc2ccccc2)NC(=O)[C@H](C)NC(=O)[C@H](CC(=O)O)NC(=O)CNC(=O)[C@H]([C@@H](C)CC)NC1=O, also called Ac-WIAQALR$r8IGDAFN$YYA-NH2) [SEQ ID NO: 1630] |
|  | 410 nM | Ac-WIAQALR[R8]IGDAFN[S5]YYA-NH2 (staple 8-15; SMILES CC[C@H](C)[C@H](NC(=O)[C@H](Cc1c[nH]c2ccccc12)NC(C)=O)C(=O)N[C@@H](C)C(=O)N[C@@H](CCC(N)=O)C(=O)N[C@@H](C)C(=O)N[C@@H](CC(C)C)C(=O)N[C@@H](CCCNC(=N)N)C(=O)N[C@]1(C)CCCCCCC=CCCC[C@@](C)(C(=O)N[C@@H](Cc2ccc(O)cc2)C(=O)N[C@@H](Cc2ccc(O)cc2)C(=O)N[C@@H](C)C(N)=O)NC(=O)[C@H](CC(N)=O)NC(=O)[C@H](Cc2ccccc2)NC(=O)[C@H](C)NC(=O)[C@H](CC(=O)O)NC(=O)CNC(=O)[C@H]([C@@H](C)CC)NC1=O, also called Ac-WIAQALR$r8IGDAFN$YYA-NH2) [SEQ ID NO: 1634] |
| 136 nM | 231 nM | Ac-IWIAQA[hhL]R[R8]IGDAFN[S5]YYA-NH2 (staple 9-16, also called Ac-IWIAQAhhLR$r8IGDAFN$YYA-NH2) [SEQ ID NO: 1688] |
